What is called Kd is the concentration at which binding is half-saturated. The stoichiometry N is the number of molecules, sites or subunits per partner or assembly.

Conditions in all cases: both partners purified
Assay [1] addresses T1, human UHRF1 PHD finger (residues 299-366) (human, UniProt Q96T88 299-366).
T1 construct: UHRF1 (ubiquitin-like PHD and RING finger domain-containing protein 1), human, PHD finger, residues 299-366; also called hPHD; hUHRF1 PHD finger; source: E. coli, expressed as a GST-fusion protein, purified (glutathione Sepharose 4B, HiTrap Q, Superdex 75)
T1 sequence (looked up): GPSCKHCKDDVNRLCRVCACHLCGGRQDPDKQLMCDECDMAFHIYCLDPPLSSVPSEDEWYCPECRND
The experiment in a line: ITC; Microcal PEAQ-ITC, 293 K, 10 mM HEPES pH 7.5, 150 mM NaCl, 0.25 mM TCEP; one-site model; n = 3. (In general: ITC needs no label: the signal is the heat of the interaction.)

Assay [2] concerns the target T2, human UHRF1 PHD finger, residues 299-366, M332A (human, UniProt Q96T88 299-366, M332A).
T2 construct: UHRF1, human, PHD finger, residues 299-366, with M332A; also called hPHD M332A; source: E. coli, expressed as a GST-fusion protein, purified
T2 sequence (looked up): T1 sequence (looked up) with M34A
The experiment in a line: ITC; Microcal PEAQ-ITC, 293 K, 10 mM HEPES pH 7.5, 150 mM NaCl, 0.25 mM TCEP, one-site model; which partner was titrated is not stated; single titrations and their means.

Assay [3] addresses T3, human UHRF1 PHD finger, residues 299-366 (human, UniProt Q96T88 299-366).
T3 construct: UHRF1 (ubiquitin-like PHD and RING finger domain-containing protein 1), human, PHD finger, residues 299-366; also called hPHD; hUHRF1 PHD finger; source: E. coli, expressed as a GST-fusion protein, purified (glutathione Sepharose 4B, HiTrap Q, Superdex 75)
T3 sequence (looked up): T1 sequence (looked up)
The description is as above.

For assay [4], the target named is T4, human UHRF1 PHD finger, residues 299–366 (human, UniProt Q96T88 299-366).
T4 construct: UHRF1 (ubiquitin-like PHD and RING finger domain-containing protein 1), human, PHD finger, residues 299-366; 15N- or 13C,15N-labelled for NMR; also called hPHD; hUHRF1 PHD finger; source: E. coli, expressed as a GST-fusion protein, purified (glutathione Sepharose 4B, HiTrap Q, Superdex 75)
T4 sequence (looked up): T1 sequence (looked up)
The assay is described as follows: SEC-SAXS; 12 mg/ml hPHD:hDPPA3_(81-118) complex on Superdex 200 Increase 5/150 GL, 20 mM Tris-HCl pH 7.5, 150 mM NaCl, 2 mM DTT, 10 µM zinc acetate, 5% glycerol, 20 °C. A general note: SEC sorts molecules by how far they enter the pores of the column.

The target in another assay is T5, hPHD M332A (human, UniProt Q96T88 299-366, M332A).
T5 construct: UHRF1, human, PHD finger, residues 299-366; also called M332A hPHD mutation; source: E. coli, site-directed mutant of hPHD; purification of the hPHD mutants not described separately
T5 sequence (looked up): T1 sequence (looked up) with M34A
The assay is described as follows: ITC; Microcal PEAQ-ITC, 293 K, 10 mM HEPES pH 7.5, 150 mM NaCl, 0.25 mM TCEP; one-site model; at least three independent titrations.

The target of assay [5] is T4, human UHRF1 PHD finger, residues 299–366. The description is as above.
Assay [6] has as its target T3, human UHRF1 PHD finger, residues 299-366. The assay is described as follows: ITC; Microcal PEAQ-ITC, 293 K, 10 mM HEPES pH 7.5, 150 mM NaCl, 0.25 mM TCEP, one-site model; which partner was titrated is not stated; single titrations and their means. This is another data set of the same source.
The target in assay [7] is T1, human UHRF1 PHD finger (residues …). The experiment in a line: ITC; Microcal PEAQ-ITC, 293 K, 10 mM HEPES pH 7.5, 150 mM NaCl, 0.25 mM TCEP; one-site model; n = 3. The source holds these as a separate data set.

Changes are numbered by the printed parent chain. Names may count otherwise. “And” between values parts separate entries of the source, which are not always exact repeats. Equal entries are not always repeated.

B1: K95P substituted hDPPA3_(81-118) (peptide, UniProt Q6W0C5 81-118, looked up)
chain: SRRGVRTLLSVQREPMARLRYMLLGGVRTHERRPTNKE
notes: also called K95P mutant of hDPPA3; source: bought: Toray Research Center (Tokyo, Japan)
With B1, in assay [1], the affinity, expressed as Kd, was 1260 nM.

B2: human DPPA3, residues 81-118 (domain or fragment)
chain: B1 chain with P15K
notes: also called hDPPA3 WT; source: E. coli BL21 (DE3), His-Ub fusion, purified (Ni Sepharose, YUH1 cleavage, HiTrap SP, Superdex 75)
For B2, the Kd in assay [2] was 9490 nM and 6150 nM and 8570 nM; in assay [3], 918 nM and 804 nM and 921 nM and 831 nM.

B3: human DPPA3, residues 81–118 (recombinant) (domain or fragment)
chain: B1 chain with P15K
notes: Used for SAXS, NMR, CD, ITC and ubiquitination experiments; also called hDPPA3; source: E. coli BL21 (DE3), His-Ub fusion, purified (Ni Sepharose, YUH1 cleavage, HiTrap SP, Superdex 75)
For B3, the “stoichiometry N” value in assay [4] amounted to 1. For the same molecule, the Kd in the assay with hPHD M332A is 8070 nM; in assay [5] it was 868 nM.

B4: human DPPA3, residues 81-118, M96A/L99A (domain or fragment, UniProt Q6W0C5 81-118, looked up)
chain: B1 chain with P15K, M16A, L19A
notes: also called hDPPA3_mutant3_M96AL99A; source: E. coli BL21 (DE3), His-Ub fusion, purified by the same protocol as the wild type
Turning to B4, the Kd in assay [6] is 355 nM and 347 nM.

B5: hDPPA3_(81-118) T87A (domain or fragment, human, UniProt Q6W0C5 81-118, looked up)
chain: B1 chain with T7A, P15K
notes: source: E. coli BL21 (DE3), His-Ub fusion, purified by the same protocol as the wild type
In the case of B5, the Kd in assay [5] worked out at 16500 nM.

B6: human DPPA3, residues 81-118, R93P/A97P (domain or fragment, UniProt Q6W0C5 81-118, looked up)
chain: B1 chain with R13P, P15K, A17P
notes: also called hDPPA3_mutant4_R93PA97P; source: E. coli BL21 (DE3), His-Ub fusion, purified by the same protocol as the wild type
Take B6: the Kd in assay [6] was 11200 nM and 9620 nM and 7360 nM.

B7: human DPPA3, residues 81-118, L88A/V91A (domain or fragment, UniProt Q6W0C5 81-118, looked up)
chain: B1 chain with L8A, V11A, P15K
notes: DPPA3, human, with L88A and V91A; named only in the sheet; also called hDPPA3_mutant2_L88AV91A
As to B7, the Kd in assay [6] is 2890 nM and 1670 nM and 1870 nM.

B8: hDPPA3_(81-118) R86A (domain or fragment, human, UniProt Q6W0C5 81-118, looked up)
chain: B1 chain with R6A, P15K
notes: as for B5
Molecule B8 yielded a dissociation constant Kd in assay [5] of 20000 nM. This counts as double-digit micromolar.

B9: hDPPA3_(81-118) R93P/A97P (domain or fragment, human, UniProt Q6W0C5 81-118, looked up)
chain: B1 chain with R13P, P15K, A17P
notes: as for B5
As to B9, in assay [5], the Kd turned out to be 9390 nM. This Kd is about 2.1-fold lower than that of the molecule before.

B10: hDPPA3 residues 81-118, M96A/L99A (peptide, UniProt Q6W0C5 81-118, looked up)
chain: B1 chain with P15K, M16A, L19A
notes: source: E. coli BL21 (DE3), purified (Ni Sepharose, His-Ub removed by YUH1, HiTrap SP, Superdex 75)
As to B10, the Kd in assay [7] was determined as 550 nM. This lies in the sub-micromolar range.

B11: hDPPA3 residues 81-118, R98A/M102A (peptide, UniProt Q6W0C5 81-118, looked up)
chain: B1 chain with P15K, R18A, M22A
notes: as for B10
As for B11, the Kd in assay [7] was found to be 352 nM.

B12: human DPPA3, residues 81-118, R98A/M102A (domain or fragment, UniProt Q6W0C5 81-118, looked up)
chain: B1 chain with P15K, R18A, M22A
notes: also called hDPPA3_mutant1_R98AM102A; source: E. coli BL21 (DE3), His-Ub fusion, purified by the same protocol as the wild type
As for B12, the Kd in assay [6] is 639 nM and 460 nM and 552 nM.

B13: hDPPA3_(81-118) R86A/T87A (domain or fragment, human, UniProt Q6W0C5 81-118, looked up)
chain: B1 chain with R6A, T7A, P15K
notes: as for B5
Regarding B13, the Kd in assay [5] is more than 85000 nM.

The values are drawn from paper PMC11187062, “Structure of human DPPA3 bound to the UHRF1 PHD finger reveals its functional and structural differences from mouse DPPA3” (Communications Biology, 2024).
